These results are taken from article PMC10629212, “Active Site Loop Engineering Abolishes Water Capture in Hydroxylating Sesquiterpene Synthases” (ACS Catalysis, 2023).

Where a chain is given by its changes, count along the chain named. Names and notes keep the numbering of the source.

The chains are these.
B1: PTS (patchoulol synthase) (Pogostemon cablin; E461S/K458R/K459R/R460G) (protein)
chain: MELYAQSVGVGAASRPLANFHPCVWGDKFIVYNPQSCQAGEREEAEELKVELKRELKEASDNYMRQLKMVDAIQRLGIDYLFVEDVDEALKNLFEMFDAFCKNNHDMHATALSFRLLRQHGYRVSCEVFEKFKDGKDGFKVPNEDGAVAVLEFFEATHLRVHGEDVLDNAFDFTRNYLESVYATLNDPTAKQVHNALNEFSFRRGLPRVEARKYISIYEQYASHHKGLLKLAKLDFNLVQALHRRELSEDSRWWKTLQVPTKLSFVRDRLVESYFWASGSYFEPNYSVARMILAKGLAVLSLMDDVYDAYGTFEELQMFTDAIERWDASCLDKLPDYMKIVYKALLDVFEEVDEELIKLGAPYRAYYGKEAMKYAARAYMEEAQWREQKHKPTTKEYMKLATKTCGYITLIILSCLGVEEGIVTKEAFDWVFSRPPFIEATLIIARLVNDITGHEFERRGSHVRTAVECYMEEHKVGKQEVVSEFYNQMESAWKDINEGFLRPVEFPIPLLYLILNSVRTLEVIYKEGDSYTHVGPAMQNIIKQLYLHPVPY
notes: recombinant purified; construct details only in Supporting Information
B2: PTS (patchoulol synthase) (Pogostemon cablin; Y525F) (protein)
chain: B1 chain with R458K, R459K, G460R, S461E, Y525F
notes: as for B1
B3: PTS (patchoulol synthase) (Pogostemon cablin; C405A) (protein)
chain: B1 chain with C405A, R458K, R459K, G460R, S461E
notes: as for B1
B4: PTS (patchoulol synthase) (Pogostemon cablin) (protein)
chain: B1 chain with R458K, R459K, G460R, S461E
notes: as for B1
B5: PTS (patchoulol synthase) (Pogostemon cablin; Y525A) (protein)
chain: B1 chain with R458K, R459K, G460R, S461E, Y525A
notes: as for B1
B6: PTS (patchoulol synthase) (Pogostemon cablin; Y531F) (protein)
chain: B1 chain with R458K, R459K, G460R, S461E, Y531F
notes: as for B1
B7: Gd11olS (germacradiene-11-ol synthase) (Streptomyces coelicolor A3(2)) (protein)
chain: MTQQPFQLPHFYLPHPARLNPHLDEARAHSTTWAREMGMLEGSGVWEQSDLEAHDYGLLCAYTHPDCDGPALSLITDWYVWVFFFDDHFLEKYKRSQDRLAGKAHLDRLPLFMPLDDAAGMPEPRNPVEAGLADLWTRTVPAMSADWRRRFAVATEHLLNESMWELSNINEGRVANPVEYIEMRRKVGGAPWSAGLVEYATAEVPAAVAGTRPLRVLMETFSDAVHLRNDLFSYQREVEDEGELSNGVLVLETFFGCTTQEAADLVNDVLTSRLHQFEHTAFTEVPAVALEKGLTPLEVAAVGAYTKGLQDWQSGGHEWHMRSSRYMNKGERPLAGWQ
notes: likely N-terminal germacradienol synthase domain of the bifunctional geosmin synthase (as in PDB 5DZ2); recombinant purified
B8: Gd11olS (germacradiene-11-ol synthase) (Streptomyces coelicolor A3(2); D240G/E239R/E241S/V238R) (protein)
chain: B7 chain with V238R, E239R, D240G, E241S
notes: as for B7

Substrate in the first data set: CC(C)=CCC/C(C)=C/CC/C(C)=C/CO[P@@](=O)(O)OP(=O)(O)O
Briefly: steady-state kinetics of sesquiterpene formation (details in Supporting Information). Format: biochemical, Pogostemon cablin. Conditions: Mg2+-dependent enzyme; conditions in Supporting Information. The text has this: steady-state kinetics of sesquiterpene formation (details in Supporting Information) on PTS (patchoulol synthase)
Take B1: the Km was 1.54 ± 0.16 µM.
The same measure, in the same setting: as for B2, the figure is 4.8 ± 1.26 µM.
The same measure, in the same setting: as for B3, the figure is 0.67 ± 0.09 µM; as for B4, 0.68 ± 0.14 µM; as for B5, 5.27 ± 1.22 µM.
On the same count and under the same terms, for B6 the value was 0.37 ± 0.09 µM.

Substrate in the next data set: CC(C)=CCC/C(C)=C/CC/C(C)=C/CO[P@@](=O)(O)OP(=O)(O)O
The description is as above. The data set is classed as biochemical, Streptomyces coelicolor. Conditions: Mg2+-dependent enzyme; conditions in Supporting Information. The source holds these as a separate data set. The text has this:
steady-state kinetics of sesquiterpene formation (details in Supporting Information) on Gd11olS (germacradiene-11-ol synthase)
For the protein B7, the Km worked out at 0.45 ± 0.08 µM.
Still for that read-out and setting: as for B8, the figure is 6.02 ± 1.25 µM.

One may read the Km as the concentration of substrate that gives half-maximal velocity.
